Measurements reported in patent US20250381223A1 (UTC THERAPEUTICS SHANGHAI, published 2025).

B1: 4.8 (bispecific antibody)
scFv-G4S-scFv: QSALTQPPSASGSPGQSVTISCTGTSSDVGAYNFVSWYQQHPGNAPKLIIYDVRKRPSGIPDRFSASKSGNTASLTVSGLQADDEADYYCSSYAGNNNLVFGGGTKLTVLGGGGSGGGGSGGGGSQVQLVQSGAEVKKPGSSVKVSCKASGGTFSSYAISWVRQAPGQGLEWMGMINPSGGTTSYAQKFQGRVTMTRDTSTSTVYMELSSLRPEDTAVYYCARGFRMDQWGQGTLVTVSSGGGGSDIQLTQSPSSLSVSVGDRVTISCRASESVEYYVTSLMQWYQQKPGQAPKLLIFAASNVESGVPSRFSGSGSGTNFTLTISSVQEEDFAMYFCQQSRKVPYTFGGGTKLEIKGGGGSGGGGSGGGGSQVKLQESGPGLVKPSETLSITCTVSGFSLSDYGVHWVRQSPGKGLEWLGVIWAGGGTNYNSALMSRKTISKDNSKSQVFLKMSSLTAADTAVYYCARDKGYSYYYSMDYWGQGTTVTVSS
notes: expressed from mRNA in T cells
B2: 4.5 (bispecific antibody)
scFv-G4S-scFv: QVQLVQSGAEVKKPGSSVKVSCKASGGTFSSYAISWVRQAPGQGLEWMGMINPSGGTTSYAQKFQGRVTMTRDTSTSTVYMELSSLRPEDTAVYYCARGFRMDQWGQGTLVTVSSGGGGSGGGGSGGGGSQSALTQPPSASGSPGQSVTISCTGTSSDVGAYNFVSWYQQHPGNAPKLIIYDVRKRPSGIPDRFSASKSGNTASLTVSGLQADDEADYYCSSYAGNNNLVFGGGTKLTVLGGGGSDIQLTQSPSSLSVSVGDRVTISCRASESVEYYVTSLMQWYQQKPGQAPKLLIFAASNVESGVPSRFSGSGSGTNFTLTISSVQEEDFAMYFCQQSRKVPYTFGGGTKLEIKGGGGSGGGGSGGGGSQVKLQESGPGLVKPSETLSITCTVSGFSLSDYGVHWVRQSPGKGLEWLGVIWAGGGTNYNSALMSRKTISKDNSKSQVFLKMSSLTAADTAVYYCARDKGYSYYYSMDYWGQGTTVTVSS
notes: as for B1
B3: 4.3 (bispecific antibody)
scFv-G4S-scFv: QVKLQESGPGLVKPSETLSITCTVSGFSLSDYGVHWVRQSPGKGLEWLGVIWAGGGTNYNSALMSRKTISKDNSKSQVFLKMSSLTAADTAVYYCARDKGYSYYYSMDYWGQGTTVTVSSGGGGSGGGGSGGGGSDIQLTQSPSSLSVSVGDRVTISCRASESVEYYVTSLMQWYQQKPGQAPKLLIFAASNVESGVPSRFSGSGSGTNFTLTISSVQEEDFAMYFCQQSRKVPYTFGGGTKLEIKGGGGSQSALTQPPSASGSPGQSVTISCTGTSSDVGAYNFVSWYQQHPGNAPKLIIYDVRKRPSGIPDRFSASKSGNTASLTVSGLQADDEADYYCSSYAGNNNLVFGGGTKLTVLGGGGSGGGGSGGGGSQVQLVQSGAEVKKPGSSVKVSCKASGGTFSSYAISWVRQAPGQGLEWMGMINPSGGTTSYAQKFQGRVTMTRDTSTSTVYMELSSLRPEDTAVYYCARGFRMDQWGQGTLVTVSS
notes: as for B1
B4: 4.4 (bispecific antibody)
scFv-G4S-scFv: QVKLQESGPGLVKPSETLSITCTVSGFSLSDYGVHWVRQSPGKGLEWLGVIWAGGGTNYNSALMSRKTISKDNSKSQVFLKMSSLTAADTAVYYCARDKGYSYYYSMDYWGQGTTVTVSSGGGGSGGGGSGGGGSDIQLTQSPSSLSVSVGDRVTISCRASESVEYYVTSLMQWYQQKPGQAPKLLIFAASNVESGVPSRFSGSGSGTNFTLTISSVQEEDFAMYFCQQSRKVPYTFGGGTKLEIKGGGGSQVQLVQSGAEVKKPGSSVKVSCKASGGTFSSYAISWVRQAPGQGLEWMGMINPSGGTTSYAQKFQGRVTMTRDTSTSTVYMELSSLRPEDTAVYYCARGFRMDQWGQGTLVTVSSGGGGSGGGGSGGGGSQSALTQPPSASGSPGQSVTISCTGTSSDVGAYNFVSWYQQHPGNAPKLIIYDVRKRPSGIPDRFSASKSGNTASLTVSGLQADDEADYYCSSYAGNNNLVFGGGTKLTVL
notes: as for B1
B5: 4.2 (bispecific antibody)
scFv-G4S-scFv: DIQLTQSPSSLSVSVGDRVTISCRASESVEYYVTSLMQWYQQKPGQAPKLLIFAASNVESGVPSRFSGSGSGTNFTLTISSVQEEDFAMYFCQQSRKVPYTFGGGTKLEIKGGGGSGGGGSGGGGSQVKLQESGPGLVKPSETLSITCTVSGFSLSDYGVHWVRQSPGKGLEWLGVIWAGGGTNYNSALMSRKTISKDNSKSQVFLKMSSLTAADTAVYYCARDKGYSYYYSMDYWGQGTTVTVSSGGGGSQVQLVQSGAEVKKPGSSVKVSCKASGGTFSSYAISWVRQAPGQGLEWMGMINPSGGTTSYAQKFQGRVTMTRDTSTSTVYMELSSLRPEDTAVYYCARGFRMDQWGQGTLVTVSSGGGGSGGGGSGGGGSQSALTQPPSASGSPGQSVTISCTGTSSDVGAYNFVSWYQQHPGNAPKLIIYDVRKRPSGIPDRFSASKSGNTASLTVSGLQADDEADYYCSSYAGNNNLVFGGGTKLTVL
notes: as for B1
B6: 4.7 (bispecific antibody)
scFv-G4S-scFv: QSALTQPPSASGSPGQSVTISCTGTSSDVGAYNFVSWYQQHPGNAPKLIIYDVRKRPSGIPDRFSASKSGNTASLTVSGLQADDEADYYCSSYAGNNNLVFGGGTKLTVLGGGGSGGGGSGGGGSQVQLVQSGAEVKKPGSSVKVSCKASGGTFSSYAISWVRQAPGQGLEWMGMINPSGGTTSYAQKFQGRVTMTRDTSTSTVYMELSSLRPEDTAVYYCARGFRMDQWGQGTLVTVSSGGGGSQVKLQESGPGLVKPSETLSITCTVSGFSLSDYGVHWVRQSPGKGLEWLGVIWAGGGTNYNSALMSRKTISKDNSKSQVFLKMSSLTAADTAVYYCARDKGYSYYYSMDYWGQGTTVTVSSGGGGSGGGGSGGGGSDIQLTQSPSSLSVSVGDRVTISCRASESVEYYVTSLMQWYQQKPGQAPKLLIFAASNVESGVPSRFSGSGSGTNFTLTISSVQEEDFAMYFCQQSRKVPYTFGGGTKLEIK
notes: as for B1
B7: 4.1 (bispecific antibody)
scFv-G4S-scFv: DIQLTQSPSSLSVSVGDRVTISCRASESVEYYVTSLMQWYQQKPGQAPKLLIFAASNVESGVPSRFSGSGSGTNFTLTISSVQEEDFAMYFCQQSRKVPYTFGGGTKLEIKGGGGSGGGGSGGGGSQVKLQESGPGLVKPSETLSITCTVSGFSLSDYGVHWVRQSPGKGLEWLGVIWAGGGTNYNSALMSRKTISKDNSKSQVFLKMSSLTAADTAVYYCARDKGYSYYYSMDYWGQGTTVTVSSGGGGSQSALTQPPSASGSPGQSVTISCTGTSSDVGAYNFVSWYQQHPGNAPKLIIYDVRKRPSGIPDRFSASKSGNTASLTVSGLQADDEADYYCSSYAGNNNLVFGGGTKLTVLGGGGSGGGGSGGGGSQVQLVQSGAEVKKPGSSVKVSCKASGGTFSSYAISWVRQAPGQGLEWMGMINPSGGTTSYAQKFQGRVTMTRDTSTSTVYMELSSLRPEDTAVYYCARGFRMDQWGQGTLVTVSS
notes: as for B1
B8: 8.6 (bispecific antibody)
scFv-G4S-scFv: QVQLVQSGAEVKKPGSSVKVSCKASGGTFSSYAISWVRQAPGQGLEWMGMINPSGGTTSYAQKFQGRVTMTRDTSTSTVYMELSSLRPEDTAVYYCARGFRMDQWGQGTLVTVSSGGGGSGGGGSGGGGSQSALTQPPSASGSPGQSVTISCTGTSSDVGAYNFVSWYQQHPGNAPKLIIYDVRKRPSGIPDRFSASKSGNTASLTVSGLQADDEADYYCSSYAGNNNLVFGGGTKLTVLGGGGSQVKLQQSGPGLVTPSQSLSITCTVSGFSLSDYGVHWVRQSPGQGLEWLGVIWAGGGTNYNSALMSRKSISKDNSKSQVFLKMNSLQADDTAVYYCARDKGYSYYYSMDYWGQGTTVTVSSGGGGSGGGGSGGGGSDIVLTQSPASLAVSLGQRATISCRASESVEYYVTSLMQWYQQKPGQPPKLLIFAASNVESGVPARFSGSGSGTNFSLNIHPVDEDDVAMYFCQQSRKVPYTFGGGTKLEIK
notes: as for B1
B9: 4.6 (bispecific antibody)
scFv-G4S-scFv: QVQLVQSGAEVKKPGSSVKVSCKASGGTFSSYAISWVRQAPGQGLEWMGMINPSGGTTSYAQKFQGRVTMTRDTSTSTVYMELSSLRPEDTAVYYCARGFRMDQWGQGTLVTVSSGGGGSGGGGSGGGGSQSALTQPPSASGSPGQSVTISCTGTSSDVGAYNFVSWYQQHPGNAPKLIIYDVRKRPSGIPDRFSASKSGNTASLTVSGLQADDEADYYCSSYAGNNNLVFGGGTKLTVLGGGGSQVKLQESGPGLVKPSETLSITCTVSGFSLSDYGVHWVRQSPGKGLEWLGVIWAGGGTNYNSALMSRKTISKDNSKSQVFLKMSSLTAADTAVYYCARDKGYSYYYSMDYWGQGTTVTVSSGGGGSGGGGSGGGGSDIQLTQSPSSLSVSVGDRVTISCRASESVEYYVTSLMQWYQQKPGQAPKLLIFAASNVESGVPSRFSGSGSGTNFTLTISSVQEEDFAMYFCQQSRKVPYTFGGGTKLEIK
notes: as for B1
B10: BCMA34 (scFv)
scFv: QPGLTQPPSVSKGLRQTATLTCTGNSNNVGNQGAAWLQQHQGHPPKLLSYRNNNRPSGISERFSASRSGNTASLTITGLQPEDEADYYCSAWDSSLSARVFGGGTKLTVLGGGGSGGGGSGGGGSQVQLVQSGAEVKKPGASVKVSCKTSGYTFSNPFVHWVRQAPGQGLEWVGIINLSGGDTLYAQKFQGGVTMTRDTSTNTAYMELTSLTFEDTAVYYCARDQAGFGDSAYWGQGTLVTVSS
notes: On lentivirus-transduced T cells as CAR; also called anti-BCMA scFv BCMA34

Target: T1, CD40-Fc (human, UniProt P25942)
T1 construct: part fused to Fc; staining reagent of the flow cytometry; also called recombinant human CD40-Fc antigen protein
Test: flow cytometry of T cells co-electroporated with 15 µg diabody mRNA and 0.5 µg 4D5.BBZ mRNA; CD40-Fc + PE-anti-IgG-Fc; E1 without mRNA: 0.27

Binder | % of cells in the positive gate
B1 | 90.2
B2 | 72.2
B3 | 43.5
B4 | 55.4
B5 | 98.2
B6 | 96.1
B7 | 95.3
B8 | 98.6
B9 | 98.5

Target: T1, CD40-Fc
Test: flow cytometry of T cells co-electroporated with 15 µg diabody mRNA and 2 µg M12 CAR mRNA; CD40-Fc + PE-anti-Fc; E1 without mRNA: 0.56

Binder | % of cells in the positive gate
B1 | 88.5
B2 | 65
B3 | 36.3
B4 | 51
B5 | 97.7
B6 | 95.8
B7 | 95.8
B8 | 98.3
B9 | 97.9

Target: T2, BCMA-Fc recombinant protein (human, UniProt Q02223 1-54)
T2 construct: construct not described; not shown: Fc part
T2 sequence (looked up): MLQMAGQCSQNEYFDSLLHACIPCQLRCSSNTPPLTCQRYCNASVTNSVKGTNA
Test: flow cytometry; CAR-T cells stained with 5 µg/mL BCMA-Fc, anti-human IgG Fc
Procedure: (5) Screening for functional anti-BCMA scFv in T cells: the anti-BCMA scFv was constructed into a bicistronic lentiviral CAR expression vector containing an IRES-truncated EGFR (tEGFR) expression cassette. The lentivirus was produced by transient transfection of 293T cells, followed by purification by ultracentrifugation and concentration. T cells were transduced with the CAR lentivirus to generate CAR-T cells, which were then cultured for 10 days. 10 days after lentivirus transduction, CAR-T cells were collected and stained with 5 μg/mL CD19-Fc protein (Ctrl Fc protein) or BCMA-Fc recombinant protein for 30 min at 4° C. After washing, the CAR-T cells were stained with the anti-human IgG Fc and anti-EGFR mAb. The samples were analyzed using a flow cytometer.

Binder | binding result
B10 | binds
